Test results taken from patent publication US20190106498A1, “TREATMENT FOR ACUTE MYELOID LEUKEMIA” (priority 2017, published 2019).

Experiments:
human AML cells = assay: αCD70/decitabine treatment of AML patient-derived xenografts in NSG mice; format: in vivo; conditions: αCD70 10 mg/kg, decitabine 1.5 mg/kg/d, 5 days
Protocol: FIGS. 1A-1I αCD70/decitabine combination therapy eradicates human CD34^+CD38^- AML stem/progenitor cells in murine xenografts. 5×10^6 FACS-purified […] cells from BM of newly diagnosed AML patients (patient […]) were injected intravenously into the tail vein of sub-lethally irradiated NSG mice. After engraftment (day 32 (P10) and day 97 (P25) after transplantation), mice were randomized and subjected to treatment with control mAb and 10 mg/kg αCD70 mAb (41D12-D) intraperitoneally (total of 3 injections) or decitabine and (1.5 mg/kg/day) for five consecutive days alone or in combination. One day after the last treatment, animals were sacrificed and blood, spleen and BM were analyzed. (FIG. 1A) Experimental setup. (FIG. 1B) CD70 expression on CD34^+CD38^- AML stem/progenitor cells. Isotype is depicted in grey; CD70 staining in black (P10) and blue (P25). […] (FIG. 1G) Representative FACS plots and (FIG. 1H) quantification indicating the frequency of CD38^- AML cells within […]^loin^-CD90^-CD34+ AML stem/progenitor cell population. […] 32 days after engraftment (engraftment in PB: 14.45+/-0.95%), NSG mice were randomized to treatment with vehicle (Veh), αCD70 mAb (αCD70, ARGX-110, 10 mg/kg), decitabine (D, 1.5 mg/kg/d) or the combination (αCD70/D) for 5 days and bone marrow, spleen and blood were analyzed.

[1] = system: CD70-expressing tumor cells; conditions: cited from earlier work
[2] = Phase I/II trial: peripheral blood counts; format: in vivo, human
Description: By C2D17, the percentage of blasts in peripheral blood was 0.8% by flow cytometry and 0% by cell morphology.
Patient 1001003 is a person with AML with myelodysplasia-related changes by WHO classification (AML-M2 by FAB classification) and 24% bone marrow blasts. […] Blast percentage at C1D1 was stable.

soluble CD27 = assay: Serum soluble CD27 ELISA in patients; format: in vivo, human; conditions: representative patient
Protocol: FIG. 10 The serum samples were analysed using an ELISA (Duoset ELISA, human CD27/TNFRSF7 (cat: DY382-05, R&D Systems). Concentration of soluble CD27 in the sample is calculated from a calibration curve. The method allows measurement of the serum concentration of natural human soluble CD27 by means of a sandwich ELISA method. Goat Anti-Human CD27 Capture antibody is coated on a microplate and nonspecific binding sites are blocked. Human serum samples are applied and bound human soluble CD27 is detected and visualized by the subsequent additions of Biotinylated Goat Anti-Human CD27 Detection antibody, Streptavidin-HRP and the mixture of the colour reagent H2O2 and the chromogenic substrate tetramethylbenzidine (TMB).
To assess the effect of anti-CD70 monotherapy and combination therapy on the CD27/CD70 interaction as well as to further explore the effect on blast percentage and stemness, patients' soluble CD27 levels were also measured.

[3] = in vivo
Protocol: Subjects received a loading dose of ARGX-110 on Day −14, followed by administration of ARGX-110 in combination with standard doses of AZA. Doses of ARGX-110 were administered intravenously every 2 weeks (loading dose at Day −14 and further doses on Days 3 and 17) in combination with standard doses of AZA to determine the dose limiting toxicity (see FIG. 4). The first patient of each cohort was monitored until day 7 before a second patient was included. […] The ARGX-110 dose level in the first cohort in Phase I was 1 mg/kg body weight.
All subjects in the study received a single loading dose of ARGX-110 on Day −14, at the same dose level as the bi-weekly dose. Subjects in Phase I of the study received one of the following treatments: • Cohort 1: 1 mg/kg body weight IV on Days 3 and 17 of a 28-day cycle • Cohort 2: 3 mg/kg body weight IV on Days 3 and 17 of a 28-day cycle • Cohort 3: 10 mg/kg body weight IV on Days 3 and 17 of a 28-day cycle • Cohort 4: 20 mg/kg body weight IV on Days 3 and 17 of a 28-day cycle

CD70 = target: T1, CD70 (Homo sapiens, UniProt P32970); conditions: cited from earlier work
T1 sequence (P32970 1-193): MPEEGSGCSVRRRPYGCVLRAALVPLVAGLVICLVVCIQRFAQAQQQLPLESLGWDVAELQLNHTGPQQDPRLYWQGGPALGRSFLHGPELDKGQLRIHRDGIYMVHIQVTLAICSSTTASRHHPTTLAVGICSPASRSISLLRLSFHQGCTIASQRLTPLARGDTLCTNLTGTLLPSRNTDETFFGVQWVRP

[4] = patient 1001002, 1 mg/kg with AZA, C3D17
[5] = patient 1001003, with AZA, C2D1

B1: ARGX-110: IgG1 anti-CD70 antibody with defucosylated Fc region; VH SEQ ID NO: 4, VL SEQ ID NO: 8 (antibody, V domains shown)
VH: EVQLVESGGGLVQPGGSLRLSCAASGFTFSVYYMNWVRQAPGKGLEWVSDINNEGGTTYYADSVKGRFTISRDNSKNSLYLQMNSLRAEDTAVYYCARDAGYSNHVPIFDSWGQGTLVTVSS
VL: QAVVTQEPSLTVSPGGTVTLTCGLKSGSVTSDNFPTWYQQTPGQAPRLLIYNTNTRHSGVPDRFSGSILGNKAALTITGAQADDEAEYFCALFISNPSVEFGGGTQLTVLG
modifications: IgG1, defucosylated Fc; Custom antibody fragment
Human AML cells
  number of CD34+CD38− and CD34+CD45− cells (LSCs): reduced both the number of CD34+CD38− cells and of CD34+CD45− cells
  total engraftment in the bone marrow, spleen and blood: reduced total engraftment
[1]
  antibody dependent cellular phagocytosis (ADCP): increase antibody dependent cellular phagocytosis (ADCP) of CD70-expressing cells
  lysis via ADCC and CDC: lyse CD70-expressing tumor cells
[1]; defucosylated Fc (Potelligent)
  ADCC functionality: increased ADCC functionality compared to a fucosylated counterpart
[2]; [4]
  Hb: 10.2 g/dL
  absolute neutrophil count (ANC): 0.97 G/L
  platelets: 128 G/L
[2]; [5]
  ANC: 0.38 G/L
  Hb: 9.2 g/dL
  platelets: 98 G/L
Soluble CD27
  sCD27 levels after the end of treatment (EOT): rise after the end of treatment
Soluble CD27; monotherapy C1D1 vs Loading, then combination therapy
  sCD27 levels: reduces sCD27 levels compared to before treatment
[3]
  Lung infection, Grade 3-5 adverse events: Total: 1
  Tooth Infection, Grade 3-5 adverse events: Total: 1
[3]; 1 mg/kg
  Lung infection, Grade 3-5 adverse events: (patients): 1 (1)
  Lung infection, Grade 3-5 adverse events: Events: 1 (1)
[3]; 3 mg/kg
  Tooth Infection, Grade 3-5 adverse events: (patients): 1 (1)
  Tooth Infection, Grade 3-5 adverse events: Events: 1 (1)
CD70
  CD70-induced CD27 signalling: inhibit CD70-induced CD27 signalling
  interaction of CD70 with CD27: inhibit the interaction of CD70 with its receptor CD27
